Results on four substances are retold here after publication PMC4218953.

The target of assay [1] is double-labelled SecYEG(Bpy/Trp) (E. coli) (UniProt P0AGA2).
The target in assay [2] is SecYEG translocon embedded in nanodiscs, labelled for FRET titrations (E. coli) (UniProt P0AGA2). The experiment in a line: FRET or BRET; titration of nanodisc-embedded translocon with vacant ribosomes or Lep75-RNC (Supplementary Fig. 3); FRET between labels in the translocon and the ribosome is told for panel c; buffer A (20 mM HEPES pH 7.5, 70 mM NH4Cl, 30 mM KCl, 7 mM MgCl2, 10% glycerol), 25 °C. Background: BRET reads energy transfer from a luciferase to a nearby fluorophore.

Assay [3] addresses double-labelled SecYEG(Bpy/Trp) (E. coli) (UniProt P0AGA2). This is another data set of the same source.
For assay [4], the target named is SecYEG translocon embedded in nanodiscs, labelled for FRET titrations (E. coli) (UniProt P0AGA2). Briefly: FRET or BRET; titration monitoring FRET between labels in the translocon and the ribosome, at the lower temperature (4 °C).

Sequence of DsbA100-RNC (P0AEG4 whole entry, looked up): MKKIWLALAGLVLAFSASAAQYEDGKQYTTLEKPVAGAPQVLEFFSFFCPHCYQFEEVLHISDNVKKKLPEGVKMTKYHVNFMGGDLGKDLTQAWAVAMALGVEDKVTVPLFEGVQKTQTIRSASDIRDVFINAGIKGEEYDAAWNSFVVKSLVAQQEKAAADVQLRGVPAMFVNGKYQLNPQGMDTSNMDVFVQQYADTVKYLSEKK

Take “Lep75-RNC (ribosome-nascent-chain complex carrying 75 N-terminal amino acids of leader peptidase) (from UniProt P00803 1-75)”: in assay [1], the increase of Bpy fluorescence of nanodisc-embedded SecYEG(Bpy/Trp) (50 nM) on addition of Lep75-RNC (200 nM), 25 °C (loss of PET quenching, lateral gate opening) was determined as 30% and the net increase of Bpy fluorescence of SecYEG(Bpy/Trp) on Lep75-RNC binding, after the change seen with single-labelled SecYEG(Bpy), 25 °C came to 25%. In assay [2], the Kd – broadly, the concentration at which binding is half-saturated – was found to be 10 nM.

For the substance “vacant 70S ribosomes from E. coli MRE600 (complex)”, the increase of Bpy fluorescence of nanodisc-embedded SecYEG(Bpy/Trp) (50 nM) on addition of vacant 70S ribosomes (200 nM), 25 °C (loss of PET quenching, lateral gate opening) in assay [1] is 15%. In assay [3], the increase of Bpy fluorescence of SecYEG(Bpy/Trp) solubilised with detergent (0.03% DDM, no nanodisc) on addition of non-translating ribosomes, 25 °C is 15%. The figures for the Kd in assay [4] and in assay [2] were 10 nM and 20 nM, respectively.

With “TolB100-RNC (from UniProt P0A855 1-430) (complex)”, in assay [3], the increase of Bpy fluorescence of nanodisc-embedded SecYEG(Bpy/Trp) (50 nM) on addition of TolB100-RNC (200 nM), 25 °C was above 20%.

Consider “DsbA100-RNC (from UniProt P0AEG4 1-208) (complex)”, for which, in assay [3], the increase of Bpy fluorescence of nanodisc-embedded SecYEG(Bpy/Trp) (50 nM) on addition of DsbA100-RNC (200 nM), 25 °C is above 20%.
